Patent US20040014636A1, “Pharmaceutical compositions comprising a modulator of adamts-1” (priority 2000, published 2004)

What was measured:
[1] = test system: ADAMTS-1 message in THP-1 cells; test: Real time PCR of ADAMTS-1 message in THP-1 cells; assay type: cell-based, human; settings: PMA 160 nM, 0 to 8+1 days
Experimental: THP-1 cells were cultured in RPMI 1640 media supplemented with 10% FBS, penicillin-Streptomycin, sodium pyruvate, and nonessential amino acids (Sigma). PMA (Sigma) was dissolved in ethanol and diluted in the medium at a final concentration of 160 nM. LDL was equilibrated in PBS and diluted to 400 μg/mL and oxidized with 10 μM CuSO4 for 2.5 hours at 37 degrees C. The mildly oxidized LDL was equilibrated in RPMI 1640 and filter sterilized.
THP-1 cells were cultured in media containing PMA for 0, 2, 4, 8, and 8+1 days. Another set of plates were incubated with PMA for 8+1 days, with the mildly oxidized LDL also present in the last day. RNA was extracted and ADAMTS-1 message was analyzed by real time PCR.

[2] = test system: 38 amino acid peptide derived from the published cleavage site on the proteoglycan aggrecan
[3] = target: versican (large proteoglycan population secreted by primary human aortic smooth muscle cells) (UniProt P13611)
Chain of UniProt P13611 (P13611 21-3396): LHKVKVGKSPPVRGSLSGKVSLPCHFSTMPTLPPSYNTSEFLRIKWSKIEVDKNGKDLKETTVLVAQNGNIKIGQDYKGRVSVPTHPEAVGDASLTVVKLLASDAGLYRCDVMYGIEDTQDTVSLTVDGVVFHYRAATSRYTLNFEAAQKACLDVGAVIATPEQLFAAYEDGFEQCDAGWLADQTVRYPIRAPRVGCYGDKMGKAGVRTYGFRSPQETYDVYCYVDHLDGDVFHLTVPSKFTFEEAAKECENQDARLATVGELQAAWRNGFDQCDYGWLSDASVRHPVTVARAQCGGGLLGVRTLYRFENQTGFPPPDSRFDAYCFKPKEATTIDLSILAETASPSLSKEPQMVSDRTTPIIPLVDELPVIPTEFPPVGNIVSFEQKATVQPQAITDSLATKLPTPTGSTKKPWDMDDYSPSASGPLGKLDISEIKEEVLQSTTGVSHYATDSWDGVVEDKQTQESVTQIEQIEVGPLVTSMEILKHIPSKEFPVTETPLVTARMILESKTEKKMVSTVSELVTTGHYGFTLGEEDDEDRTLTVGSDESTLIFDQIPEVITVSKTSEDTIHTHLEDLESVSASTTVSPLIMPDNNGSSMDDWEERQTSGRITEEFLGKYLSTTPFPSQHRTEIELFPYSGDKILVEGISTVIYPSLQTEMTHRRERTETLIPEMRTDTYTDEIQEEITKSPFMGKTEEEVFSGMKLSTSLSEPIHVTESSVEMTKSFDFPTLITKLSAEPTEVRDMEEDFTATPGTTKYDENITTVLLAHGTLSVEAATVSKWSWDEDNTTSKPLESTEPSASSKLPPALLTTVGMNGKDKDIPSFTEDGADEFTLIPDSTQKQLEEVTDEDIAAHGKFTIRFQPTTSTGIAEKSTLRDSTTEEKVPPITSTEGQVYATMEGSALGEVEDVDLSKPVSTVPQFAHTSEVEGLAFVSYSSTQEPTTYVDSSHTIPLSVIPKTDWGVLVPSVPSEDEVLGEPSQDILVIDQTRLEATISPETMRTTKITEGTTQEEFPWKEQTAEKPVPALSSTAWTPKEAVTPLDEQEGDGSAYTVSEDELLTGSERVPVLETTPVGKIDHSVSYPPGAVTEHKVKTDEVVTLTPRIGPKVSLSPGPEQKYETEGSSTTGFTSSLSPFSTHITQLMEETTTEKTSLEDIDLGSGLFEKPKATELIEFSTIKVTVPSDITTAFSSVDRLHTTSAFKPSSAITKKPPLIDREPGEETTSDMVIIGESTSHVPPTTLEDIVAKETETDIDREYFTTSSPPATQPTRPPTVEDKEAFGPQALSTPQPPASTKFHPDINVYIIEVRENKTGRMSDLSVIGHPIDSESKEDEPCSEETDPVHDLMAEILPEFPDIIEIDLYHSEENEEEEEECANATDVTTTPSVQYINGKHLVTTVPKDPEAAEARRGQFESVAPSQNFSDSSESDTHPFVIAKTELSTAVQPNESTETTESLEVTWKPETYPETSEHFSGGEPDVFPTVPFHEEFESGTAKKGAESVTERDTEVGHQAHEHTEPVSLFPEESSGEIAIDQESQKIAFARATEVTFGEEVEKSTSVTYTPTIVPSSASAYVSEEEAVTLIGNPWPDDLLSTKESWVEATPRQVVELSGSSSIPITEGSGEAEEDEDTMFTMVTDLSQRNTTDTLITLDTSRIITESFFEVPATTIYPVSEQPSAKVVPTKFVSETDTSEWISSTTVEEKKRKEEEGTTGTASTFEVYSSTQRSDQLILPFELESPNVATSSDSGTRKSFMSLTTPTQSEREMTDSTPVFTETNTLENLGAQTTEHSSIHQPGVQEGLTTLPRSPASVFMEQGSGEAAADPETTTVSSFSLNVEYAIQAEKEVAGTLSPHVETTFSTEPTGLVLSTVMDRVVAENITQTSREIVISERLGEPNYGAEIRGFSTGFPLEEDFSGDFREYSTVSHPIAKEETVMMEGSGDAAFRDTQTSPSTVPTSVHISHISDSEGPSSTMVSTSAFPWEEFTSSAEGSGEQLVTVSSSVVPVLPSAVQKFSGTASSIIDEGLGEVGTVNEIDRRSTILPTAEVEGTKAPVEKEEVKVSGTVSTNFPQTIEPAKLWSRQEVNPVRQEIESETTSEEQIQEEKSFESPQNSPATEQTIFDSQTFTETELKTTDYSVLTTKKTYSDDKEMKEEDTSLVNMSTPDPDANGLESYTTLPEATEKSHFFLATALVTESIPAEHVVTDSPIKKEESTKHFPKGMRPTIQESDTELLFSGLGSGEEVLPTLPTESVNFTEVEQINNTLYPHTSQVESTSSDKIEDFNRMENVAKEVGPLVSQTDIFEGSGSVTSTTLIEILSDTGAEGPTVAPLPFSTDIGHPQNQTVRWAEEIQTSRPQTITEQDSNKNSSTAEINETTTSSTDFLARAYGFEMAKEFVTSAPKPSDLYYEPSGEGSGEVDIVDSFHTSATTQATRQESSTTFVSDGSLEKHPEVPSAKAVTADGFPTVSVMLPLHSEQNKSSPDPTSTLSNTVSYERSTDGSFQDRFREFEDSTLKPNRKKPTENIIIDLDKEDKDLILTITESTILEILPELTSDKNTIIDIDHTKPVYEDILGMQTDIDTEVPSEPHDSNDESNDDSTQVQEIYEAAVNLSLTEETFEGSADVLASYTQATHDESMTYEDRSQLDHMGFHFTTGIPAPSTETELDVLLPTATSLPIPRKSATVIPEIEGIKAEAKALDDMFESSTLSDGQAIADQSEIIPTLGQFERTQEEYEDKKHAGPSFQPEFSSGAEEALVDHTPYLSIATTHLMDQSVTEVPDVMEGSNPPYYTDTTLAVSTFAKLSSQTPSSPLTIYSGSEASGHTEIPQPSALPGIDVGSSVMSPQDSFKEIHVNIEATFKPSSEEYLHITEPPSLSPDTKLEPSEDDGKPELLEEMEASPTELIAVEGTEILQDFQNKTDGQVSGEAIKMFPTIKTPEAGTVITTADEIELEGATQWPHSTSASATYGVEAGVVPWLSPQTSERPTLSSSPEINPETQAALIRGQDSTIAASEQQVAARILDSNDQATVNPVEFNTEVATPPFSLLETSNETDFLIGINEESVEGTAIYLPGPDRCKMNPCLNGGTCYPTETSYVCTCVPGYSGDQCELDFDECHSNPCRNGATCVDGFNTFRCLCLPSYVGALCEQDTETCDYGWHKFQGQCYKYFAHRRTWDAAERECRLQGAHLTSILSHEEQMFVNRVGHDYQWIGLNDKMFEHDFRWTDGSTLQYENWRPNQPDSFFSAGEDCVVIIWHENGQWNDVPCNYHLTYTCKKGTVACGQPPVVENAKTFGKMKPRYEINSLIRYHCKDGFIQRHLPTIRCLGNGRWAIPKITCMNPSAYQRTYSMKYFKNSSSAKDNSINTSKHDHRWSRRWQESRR

versican = test: Digestion of proteoglycans from aortic smooth muscle cells, size exclusion chromatography; assay type: biochemical, human; settings: total proteoglycan from primary aortic smooth muscle cells incubated with ADAMTS-1 before size exclusion chromatography
Experimental: Human aortic smooth muscle cells were purchased from Clonetics (BioWhittaker) and cultured according to supplier. For preparation of total proteoglycan population (total PG), AoSMCs were seeded at 3000 cells/cm2 in SmBM2 media (4×80 cm2 flasks). 5 days later, the cells were washed with Dulbecco's PBS and BME-Diploid medium with FBS was added to the cells. 1 day later, fresh DME-Diploid medium without FBS, containing 35S-Sulfate 33 μCi/mL and 3H-Leucine 17 μCi/mL, 15 mL/bottle and incubated for 3 days. The medium was transferred and dialyzed against binding buffer containing 8M urea, 2 mM EDTA, 0.5% Triton X-100, and 20 mM Tris-HCl, pH 7.5, for 48 hours and applied to a pre-equilibrated Hi-Trap Q column. After washing with 25 mL of Elution buffer A (binding buffer+0.25 M NaCl, proteoglycan population is eluted with a linear salt gradient: 0.25-3 M NaCl in binding buffer. Total counts in each fraction were counted by liquid scintillation counting. The fractions containing PGs were pooled, dialyzed against water, lyophilized and stored at −20 degrees C. until use (‘total PG’).
Separation by size exclusion chromatography was performed using a Superdex 200 HR 10/30 from Amersham Pharmacia biotech. […] 1 mL fractions were collected and 35S measured for each fraction.

`CCCCCCCCCCCCCC(=O)O[C@@H]1[C@@H](C)[C@@]2(O)[C@@H](C=C(CO)C[C@]3(O)C(=O)C(C)=C[C@@H]23)[C@@H]2C(C)(C)[C@]12OC(C)=O` [PMA] was tested, and the ADAMTS-1 message level [1] was “induced”.

For recombinant ADAMTS-1, the “cleavage of peptide substrate, HPLC analysis” value [2] was “Cleavage of the peptide by recombinant ADAMTS-1 has been confirmed by HPLC analysis” and the “size exclusion chromatography of total proteoglycan incubated with or without ADAMTS-1” value [3] was “In the presence of ADAMTS-1, the size of the large proteoglycan population made up primarily of versican is reduced and the size of the peak corresponding to smaller sized proteoglycan population is increased”.

B1: ADAMTS-1: metalloproteinase (A Disintegrin-like And Metalloprotease with Thrombospondin type 1 motif), incubated with total proteoglycan (protein)
chain: FVSSHRYVETMLVADQSMAEFHGSGLKHYLLTLFSVAARLYKHPSIRNSVSLVVVKILVIHDEQKGPEVTSNAALTLRNFCNWQKQHNPPSDRDAEHYDTAILFTRQDLCGSQTCDTLGMADVGTVCDPSRSCSVIEDDGLQAAFTTAHELGHVFNMPHDDAKQCASLNGVNQDSHMMASMLSNLDHSQPWSPCSAYMITSFLDNGHGECLMDKPQNPIQLPGDLPGTSYDANRQCQFTFGEDSKHCPDAASTCSTLWCTGTSGGVLVCQTKHFPWADGTSCGEGKWCINGKCVNKTDRKHFDTPFHGSWGMWGPWGDCSRTCGGGVQYTMRECDNPVPKNGGKYCEGKRVRYRSCNLEDCPDNNGKTFREEQCEAHNEFSKASFGSGPAVEWIPKYAGVSPKDRCKLICQAKGIGYFFVLQPKVVDGTPCSPDSTSVCVQGQCVKAGCDRIIDSKKKFDKCGVCGGNGSTCKKISGSVTSAKPGYHDIITIPTGATNIEVKQRNQRGSRNNGSFLAIKAADGTYILNGDYTLSTLEQDIMYKGVVLRYSGSSAALERIRSFSPLKEPLTIQVLTVGNALRPKIKYTYFVKKKKESFNAIPTFSAWVIEEWGECSKSCELGWQRRLVECRDINGQPASECAKEVKPASTRPCADHPCPQWQLGEWSSCSKTCGKGYKKRSLKCLSHDGGVLSHESCDPLKKPKHFIDFCTMAECS
With B1 the “cleavage of large proteoglycan population (versican)” value (versican) was “the size of the large proteoglycan peak is diminished”.
